Here are results for twelve sequences from a protein production outcome set (Wang et al. 2014).

This data set can be described thus: label from the status in PepcDB records.
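Note: failed if final PepcDB status was selected cloned or expressed and not failed if soluble or beyond.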

On to “MTDSKYISIKGARVNNLKNIDVNIPRNKLVVITGLSGSGKSSLAFDTLYAEGQRRYVESLSSYARQFLGRMSKPECDFIKGIPPAIAIEQKVNSRNPRSTVGTSTEIYEYLRLLYARVGKTYSPVSGEEVKKHSIEDIVNCMLSYPEGTRYTVLTQIYLHDGRTLEQQLEIDRKQGFNRLEVNGEMVRIDEYAAGKEDVVYLLVDRMTAAKSKDAISRLTDSAETAMYEGDGMCMLRFYQPDGTTRLHTFSTKFEADGMTFEEPNDQMFSFNSPIGACPVCEGFGKVIGIDEHLVVPNRSLSVYDGAIVCWRGEKMGEWREELIHNAEKFNFPIFTPYYELTDEQRRVLWEGNQYFHGINDFFKMLEENQYKIQYRVMLARYRGKTLCPKCHGTRLKPEAGYVRVGGKNISELVDLPITELQKFFDSLTLNEHDQAVARRILTEINSRIRFLIDVGLGYLTLNRLSNSLSGGESQRINLATSLGSSLVGSLYILDEPSIGLHSRDTDRLVHVLRQLQQLGNTVVVVEHDEEIIRAADYIIDIGPNAGRLGGQVVYEGDMKDLKKGSNSYTVKYLLGEETIPVPEHRRPWNNYIEIKGARENNLKGVDARFPLNVMTVVTGVSGSGKSTLVRDIFYRALKRELDECSERPGEFVSIEGDLRNLRNVEFVDQNPIGKSSRSNPVTYIKAYDEIRKLWADQPLAKQMGYTAGHFSFNNEGGRCEECKGDGTITVEMQFMADLVLECESCHGKRFKADTLEVKFQDKNIYDILEMTVNQAIEFFTEHGQKKVVKKLIPLQDVGLGYIKLGQSSSTLSGGENQRVKLAYYLSQEKADPTLFIFDEPTTGLHFHDIRKLLDAFDALIRRGHSIVIIEHNMDVIKCADYVIDLGPEGGDKGGNIVATGTPEEVAACAASYTGQFLQEKLNHL”, for which the protein production entry is “failed”. “MTDTHTCLTAKDFTSNQEPKWCPGCGDFMVLQQLKNAMAELCLKTEEVVVVSGIGCSSRLPYYINTYGVHGIHGRAMAMASGLKVARPDLSVWVGTGDGDALSIGGNHYIHTVRRNLDINVVLFNNEIYGLTKGQYSPTSKVGLRTVTSPTGVVDYPINTIALTLGAGGTFVARVMDRDGKLMKEIFKRAHNHKGTSIVEIYQNCPIFNDGAFRAFSDKERKDDTTLYLEQGQPLVFGANGSKGIYLDGFKPTVIDLEKSGVSKDDLWIHDENDLIKANILSRFFDDPNSTEEFLPRPFGIFYVEDRFTYEQALSAQIDKAQEKGEGTLEELLAGNSTWTIN”: the protein production entry was “failed”. In the case of “MTDTTAEPSRPSGRLWAYLWQLHAETKAYLTLDAPAIASNIDSLSESEQQLAREVFPDGGQSTADSDGGSATDAGSRGGDDSSPFDVGGSYSLRQKIGLVLGPLLFAALLFSPTPDGLPAEGQAVAAVTAWVAVWWMSEAIPIPAASLLPIVLFPLAGALPVEPTATSYGHPLVFLFMGGFFLAMAMQRWGLHRRIALRTIKLVGTEPSRLILGFMLATAILSMWVSNSATVMMMVPIALAVIYQTADLIDDSDVDIDTGVGEFSFGIALMLCIAYGASVGGVATLIGTPPNILFAGQAEALFGQSVSFAEWMLYGVPIAALGLVTVYIYVTRIAMTPQFDSLPAGTETIDRELAELGSMSQQEKLVAVVFVGMAAAWIGASLIEPVLDITPPDDADTIVAIGGALVLFTFPTTGENGDQTFLLDWSSAVEIPWGVILLFGGGLAIAAGFSETGLAVWIGEQLQLLEGVQMAAILLAVVVMTIFLTEVTSNTATTAMLMPILGAVAIGISVHPFGLMIAGATAASFAFMLPVATPPNAIVFGSGYITLPQMARVGVGLNVIGIVLITLLALVWLPIAWGIELATLPAEFADAFDS”, the protein production result is listed as “failed”.

Turning to “MTDVFKDMAFQLKTERLDLNMWEESDAVWLRKLIGERGVEMPTIESVRSSLIEMRKKAIENGISLLTIRRRDEGDFIGYCGLIIGRATLEEPEIAYELFKSAHRKGYATEAASAVLEAAIATGRHRLWSTVGAWNTASFRVLEKLGFHRHHSTYGERGEIVWNVRDL”, the protein production entry is recorded as “failed”. Take “MTEAATFHLEMTRQIRAPRERVFDAFTDQAALAAWHCPRGMRVLEASADARVGGRYRLVMGSRDGSQHMVGGEYQKIDRANFLAYTWQWEGGELPEGTRTLIEVTLTDKDGGTLLHMRHSGFPDTATRDAHTSGWQSVFNRLSDYVDAEGSAGTVTVYGDGRSTYVRTVRMALAEKGIAYKLDPLTPRDPELLKHNPFGRIPAFTDGPLEFFETRAILSYIEEAFDGPSLISQAGPTARARCEQWISLINCHAYDAMVRRYVLQYVFPSGENGQPDRKTIDAALPDIAKQLDALEHAYGGRDFLAGNTLTMADLFFAPIVEYLGRFPESAAMLESRPNIRRAHAAMRARPSYAATQPNFG”: the protein production result is on record as “failed”. Regarding “MTEDTADSGTGGRGPTRRHLVRRALALGGALAVAPFPAGPAKAVPPPRHPHRTLRHGSPERAGLLPDHLRGLVTDAESFLGPSPTHPWYAGAVLLAGRGDTVALHQPIGTAVRYSAYDAKTDTGVEFPAERQIPMATDTVFDLASVSKLFTSLLAVQQLERGALELEARVASYLPDFAGAGKQDVTIRQLLTHTSGFRAWLPLYKAPSRAEKLRLIWNEAPLSPPGTKYLYSDLNLISLQLVLEEITGHPLDALLRDEITAPLGLRSTRYNPPAAWKPRIAATEDARPPWSGLDRGLVWGEVHDENAFGFGGVAGHAGVFSCAWDLAVLGRTLLNGGTYGHTRILAPESVELLFTDFNTAFPGDEHGLGFELYQHWYMGAMATPRTAGHTGFTGTSLVLDPTTDSFLIVLGNSVHPVRTWRSGSAPRAAAGNHLARAVQVRPARGRTSWFSGMATAASATLTLPELDTAGTADTAETTGTADSTTADSGGRLRCALWWDTEPRSDTLFLEASADDGASWQPVPFTTACDGEEAREHPTGSVTGWSGRVWHRLHADLPRARRLTLRWRYTTDRLYVGRGAYVDAVRVESGGRVLFDEARPTDAARIEAAGWTPSEN”, the protein production result is given as “failed”.

Turning to “MTEHRPAIELEEIPTLLERIEGYKGRSRLTQLAIKLNLLIFIRSSELRFARWSEIDFKSGLWVIPEQREAIKGIKHSDRGAKMRRKHYVPLCEQALVILGELKDLTYDVNGDDGFILTGCYDAMKPMSENTINKALRKMGYDTKTDLCGHGFRTLACSALIESGIWPEDVVELQMSHMEKNNVRAAYTHKAKHLEQRRLMLQWWADFLDANGSGMVRPFEFAQGATQYLEHHHHHH”, the protein production result was “failed”. The entry for “MTEIKYKVITKDAFALPYTIIKAKNQPTKGVIVYIHGGGLMFGKANDLSPQYIDILTEHYDLIQLSYRLLPEVSLDCIIEDVYASFDAIQSQYSNCPIFTFGRSSGAYLSLLIARDRDIDGVIDFYGYSRINTEPFKTTNSYYAKIAQSINETMIAQLTSPTPVVQDQIAQRFLIYVYARGTGKWINMINIADYTDSKYNIAPDELKTLPPVFIAHCNGDYDVPVEESEHIMNHVPHSTFERVNKNEHDFDRRPNDEAITIYRKVVDFLNAITMV” is “not failed”.

In the case of “MTEINLLQPMHASTKRDYVQRVVEHDKAESAAVARQWGRDYWDGDRRYGYGGYRYDGRWRPLAQTLIDRYGIKPGMSVLDVGCGKGYLLYEFTQLVPDLTIAGIDVSEYGIANAKEDVRPQLRVGSAVELPYPDHSFDLVVSLGVLHNLPLEDVFRAVSEIERVGRGASKYLMVESFRNEREKANLLYWQLTCLSFHGPDTWAWIYDKCGYRGDHGFIFFE”, the protein production entry was “failed”. The entry for “MTEKHLIWDLPLRIFHWGFAATILAAWYTAEQGADLVEIHMQLGFVALALIAFRILWGLIGPKHARFSQFVPSPKSLLSYLRSPNTAKSTAGHNPLGALMVILMILLISAQAISGLFINDDVFSSGPYYGRISNELEKVMKFLHHNTFDFMIAAIVLHIAAITFYWRVKKENLVLPMITGKKTTAQVKSSDAIPHSKIILGCIVAVCCVIFVYWLVVVNAPVIEEFYY” is “failed”; for “MTELVTFGETMLRLSPPGDERLETADQYAVRAAGAESNVAVAAQRLGVDAMWASKLPDSPVGRRVTGELKHHGVSVDVAWDDSDSARQGTYYLEQGSPPRGNDVIYDRQNASVTTATPAELPTEAIADAAGFHTSGITPALSETLESTTADLLSLAQDAGTTTSFDLNYRSKLWTPAEARSVLTELFPSVDLLVVAERDANVVLDRTGDAETIARDLAAEYGFEATVITRGSDGALALADGTVTEQPTFESTDAHPVGTGDSFVGGFLSQYLSGGTVADGLAWGAATAALKRTIPGDIAVVSPDEIRSILSGDTEAISR” it is “failed”. The entry for “MTENEFLSQEEIDKLLSDSDTGGVLTPEEKDMIGEIGNIAMGSAATTLSMILGRDIHITVPTVREEKMKNVKSDFSGEQVVVSVEYTEGLEGLNVLVLDKKLVAVIADLMMGGSGEVETEELDEIKLSAVGEAMNQMMGSAATSLSELLGITINISPPKVEI” is “not failed”.
